Laboratory results as given in patent publication US20240025993A1, “CD19 BINDING MOLECULES AND USES THEREOF” (NOVARTIS AG, priority 2020, published 2024).

T1: human CD19 (Homo sapiens, UniProt P15391)
T1 construct: expressed in transfected cells; host or cells: mouse cell line 300.19
T1 sequence (P15391 20-556): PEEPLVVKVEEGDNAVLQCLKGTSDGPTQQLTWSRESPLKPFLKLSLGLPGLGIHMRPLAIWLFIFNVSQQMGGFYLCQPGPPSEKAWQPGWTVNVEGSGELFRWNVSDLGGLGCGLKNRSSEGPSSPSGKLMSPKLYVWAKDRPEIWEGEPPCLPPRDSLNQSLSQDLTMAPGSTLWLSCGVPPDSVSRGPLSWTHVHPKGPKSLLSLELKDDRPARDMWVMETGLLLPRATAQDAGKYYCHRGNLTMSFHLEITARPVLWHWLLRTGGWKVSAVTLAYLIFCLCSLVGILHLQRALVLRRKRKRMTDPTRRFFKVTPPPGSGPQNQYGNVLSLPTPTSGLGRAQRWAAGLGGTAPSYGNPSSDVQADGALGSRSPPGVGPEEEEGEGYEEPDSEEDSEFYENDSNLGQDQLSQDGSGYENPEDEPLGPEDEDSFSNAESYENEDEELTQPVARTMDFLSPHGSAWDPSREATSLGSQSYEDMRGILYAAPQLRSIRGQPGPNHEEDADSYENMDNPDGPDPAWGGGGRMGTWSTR


Legend:
[1] = Differential scanning calorimetry, melting temperature of Fc modified anti-CD3 antibodies (Example 35); type: physicochemical; conditions: DSC, 1 mg/ml in PBS pH 7.4, anti-CD3 IgG1 Fc variants
Method: Calorimetric measurements were carried out on a differential scanning micro calorimeter (Nano DSC, TA instruments). The cell volume was 0.5 ml and the heating rate was 1° C./min. All proteins were used at a concentration of 1 mg/m in PBS (pH 7.4). The molar heat capacity of each protein was estimated by comparison with duplicate samples containing identical buffer from which the protein had been omitted. The partial molar heat capacities and melting curves were analyzed using standard procedure. Thermograms were baseline corrected and concentration normalized.

[2] = Aggregation propensity (% HMW) by analytical SEC of IgG1 anti-CD3 antibody and Fc variants (Example 35); type: physicochemical; conditions: PBS pH 7.4, anti-CD3 antibodies
Method: Size exclusion chromatography measurements were performed to evaluate the aggregation propensity (% HMW) of IgG1 antibody and Fc modified derivatives. The produced and purified anti CD3 antibodies were applied to an analytical size exclusion chromatography column (SEC 200, GE Healthcare), equilibrated with PBS buffer pH 7.4.

[3] = biological target: human FcγR1A (Homo sapiens, UniProt P12314); assay: SPR binding of Fc modified anti-CD3 IgG1 antibodies (Example 34); conditions: anti-CD3 IgG1 antibody immobilized
Method: Surface plasmon resonance (SPR) experiments were performed to analyze the interaction of human activating receptors FcγR1A, FcγR3A (V158) and human C1q with IgG1 WT and antibody-Fc variants. Binding kinetics and their relative binding affinities were explored. The binding affinity is an important characteristic of an interaction between an antibody and an antigen. The equilibrium dissociation constant (KD) defines how strong the interaction is and therefore how much antibody-antigen complex is formed at equilibrium.
The knowledge of the antibody characteristics is not only essential during selection of the best therapeutic antibody candidate, but also important to understand the in vivo behavior and potentially predict cellular immune responses. […] Binding to human C1q was evaluated. […] SPR measurements were measured on a Biacore T200 (GE-Healthcare Life Sciences) controlled by Biacore T200 control software version 2.0.1. […]
The antibodies were covalently immobilized on a CM5 sensor chip whereas Fc gamma receptors or human C1q served as analytes in solution (FIG. 38). […] Zero concentration samples (blank runs) were measured for both methods to allow double-referencing during data evaluation.
Data were evaluated using the Biacore T200 evaluation software. […] In addition, the maximum response reached during the experiment was monitored. […]

[4] = biological target: T1, human CD19; assay: Binding of TBMs to 300.19 cells overexpressing human CD19 (Example 11); conditions: flow cytometry, R variants
Method: (§1) The mouse cell line 300.19 was engineered to overexpress either human CD19 or cyno CD19. Cells were cultured in RPMI medium (Invitrogen #11875-093) with 10% FBS and 2-mercaptoethanol. Cells were harvested and resuspended in FACS buffer (PBS containing 1% FBS). 50,000 cells per well were plated in a V-bottom 96-well plate. Each cell line was incubated with serial dilutions of TBMs of Example 1A (i.e., R variants) for one hour on ice. Cells were centrifuged for 4 min at 400×g and washed with FACS buffer. This was repeated twice, and then the cells were incubated with Alexa-647 labeled anti-human Fc secondary antibody (Jackson Immuno #109-605-098) for 30 min on ice. The cells were washed twice, then resuspended in 100 μL of FACS buffer. FACS data was collected on a Beckman Coulter Cytoflex and analysis was performed using CytExpert v2.3.

[5] = test system: cyno CD19; assay: Binding of TBMs to 300.19 cells overexpressing cyno CD19 (Example 11); conditions: flow cytometry, R variants
Method: as §1

human FcγR1A, sequence (P12314 16-374): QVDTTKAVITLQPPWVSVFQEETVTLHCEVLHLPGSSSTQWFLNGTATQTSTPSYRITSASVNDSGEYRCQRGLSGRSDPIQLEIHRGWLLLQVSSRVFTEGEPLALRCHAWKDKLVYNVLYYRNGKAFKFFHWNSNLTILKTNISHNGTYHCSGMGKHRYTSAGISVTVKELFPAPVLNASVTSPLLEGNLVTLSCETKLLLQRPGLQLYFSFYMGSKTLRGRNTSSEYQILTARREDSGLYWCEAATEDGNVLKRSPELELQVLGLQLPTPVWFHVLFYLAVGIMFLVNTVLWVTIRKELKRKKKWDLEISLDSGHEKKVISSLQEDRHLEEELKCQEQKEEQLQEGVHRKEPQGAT

Molecule | Melting temperature (Tm) of CH2 domain [1] [°C] | (%) higher molecular weight [2] [%] | Maximum response at 100 nM hFcgammaRIA (RU) [3] [RU] | binding to cells overexpressing human CD19 [4] | binding to cells overexpressing cyno CD19 [5]
DAPASK-IgG1: anti-CD3 IgG1 with D265A/P329A/S267K (antibody) heavy: EVQLVESGGGLVQPGGSLKLSCAASGFTFNTYAMNWVRQASGKGLEWVGRIRSKYNNYATYYADSVKDRFTISRDDSKSTLYLQMNSLKTEDTAVYYCVRHGNFGNSYVSWFAYWGQGTLVTVSSASTKGPSVFPLAPSSKSTSGGTAALGCLVKDYFPEPVTVSWNSGALTSGVHTFPAVLQSSGLYSLSSVVTVPSSSLGTQTYICNVNHKPSNTKVDKRVEPKSCDKTHTCPPCPAPELLGGPSVFLFPPKPKDTLMISRTPEVTCVVVAVKHEDPEVKFNWYVDGVEVHNAKTKPREEQYNSTYRVVSVLTVLHQDWLNGKEYKCKVSNKALAAPIEKTISKAKGQPREPQVYTLPPSRDELTKNQVSLTCLVKGFYPSDIAVEWESNGQPENNYKTTPPVLDSDGSFFLYSKLTVDKSRWQQGNVFSCSVMHEALHNHYTQKSLSLSPGK light: QAVVTQEPSLTVSPGGTVTLTCRSSTGAVTTSNYANWVQQKPGQAPRGLIGGTNKRAPWTPARFSGSLLGDKAALTLSGAQPEDEAEYFCALWYSNLWVFGGGTKLTVLGQPKAAPSVTLFPPSSEELQANKATLVCLISDFYPGAVTVAWKADSSPVKAGVETTTPSKQSNNKYAASSYLSLTPEQWKSHRSYSCQVTHEGSTVEKTVAPTECS | 65 | 3.6 | 13 |  | 
NEG258: CD19 antibody/binder; VH SEQ ID NO:13, VL SEQ ID NO:26 (antibody, V domains shown) VH: QVQLVQSGAEVKKPGASVKVSCKASGYTFTTYWIQWVRQAPGQRLEWMGAVYPGDADTRYTQKFQGRVTLTADRSASTAYMELSSLRSEDTAVYYCGRDAGLEYYALDYWGQGTLVTVSS VL: EIVMTQSPATLSVSPGERATLSCRASQDVGTAVAWYQQKPGQAPRLLIYWASTRHTGIPARFSGSGSGTEFTLTISSLQSEDFAVYFCQQYANFPLYTFGQGTKLEIK |  |  |  | greater affinity for both human CD19 and cyno CD19 | greater affinity for both human CD19 and cyno CD19
